“And” between values parts separate entries of the source, which are not always exact repeats. Identical values can stand only once.
System: MLO-Y4 cells
Assay: Anti-apoptosis assay: H2O2-induced cell death of MLO-Y4 osteocytes
Assay type: cell-based
Protocol: Cells were stained with Hoechst 33342 and Eth-D1, and analyzed to determine the percentage of cell death. *: p<0.05, ***: p<0.001 vs 0.3 mM H2O2 treated condition. […] MLO-Y4 cells were seeded and incubated until 60% cell density. The cells were incubated with Freestyle293 medium for 4 hours and were treated with indicated concentrations of irisin for 16 hours. Sclerostin mRNA level was analyzed by qRT-PCR. Cyclophilin was used as a control house-keeping gene.
Certain materials and methods were used to generate the results described herein. […] Cells were stained with Hoechst 33342 (ThermoFisher Scientific, catalog number H3570) and Eth-D1 (ThermoFisher Scientific, catalog number E1169) and analyzed to determine the percentage of cell death using ImageJ. […] Co-precipitated irisin was analyzed by immunoblot analysis against flag tag (Sigma Aldrich, catalog number A8592). The data shown in FIGS. 5A and 5B were generated from MLO-Y4 cells treated and analyzed as in the experiments used to generate the data shown in FIG. 2D, except that pre-treatment of 100 nM RGDS (FIG. 5A) or echistatin (R & D Systems Inc., catalog number 3202/100U) (FIG. 5B) for 10 minutes was performed before irisin treatment. […] Sclerostin mRNA level was analyzed by qPCR (FIG. 7A). […] Epididymal fats were collected, RNAs were extracted from the tissues, and mRNA levels of the indicated genes were analyzed by qPCR. […]

B1: irisin: secreted cleaved form of FNDC5; recombinant human/mouse irisin with C-terminal his tag produced in HEK293 cells (protein)
chain: DSPSAPVNVTVRHLKANSAVVSWDVLEDEVVIGFAISQQKKDVRMLRFIQEVNTTTRSCALWDLEEDTEYIVHVQAISIQGQSPASEPVLFKTPREAEKMASKNKDEVTMKE
modifications: left off: small tags and cut ends
notes: secreted cleaved form of FNDC5; recombinant human/mouse irisin with C-terminal his tag produced in HEK293 cells
MLO-Y4, 0.3 mM H2O2, dose dependent
  concentration as low as which irisin prevented osteocyte cell death: 1 ng/ml and 70 pM
MLO-Y4, hydrogen peroxide
  concentrations at which irisin reduced hydrogen peroxide-induced apoptosis: 1 to 500 ng/mL

— patent US20210063414A1, “METHODS FOR PREVENTING AND/OR TREATING BONE LOSS CONDITIONS BY MODULATING IRISIN” (Dana-Farber Cancer Institute, Inc., priority 2018, published 2021)
